Measurements taken from the supplement of paper PMC10126150.
± gives the standard deviation of the averaged measurements.

Tested on: ATP
Assay: switch fluorescence ratio, 500 uM ATP over buffer (Cy3 cluster intensity, sum of 5 cycles each) (fold (ratio)); higher = stronger signal-on switching upon ATP binding; sequences stand for … in TCGTCGGCAGCGTCAGATGTGTATAAGAGACAGTTTTTTTTTTTTTTTTTTTTTTTTT…TC
Details: aptamer strand: ATP DNA aptamer (quencher-CACCTGGGGGAGTATTGCGGAGGAAGG + anchor), 100 nM annealed; ATP concentration: 500 uM
Method in brief: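 Clusters carrying Cy3-labelled switching strands on a modified Illumina MiSeq flow-cell were annealed to 100 nM quencher-labelled ATP aptamer and imaged in selection buffer. They were imaged again after 15 min with 500 uM ATP at 22 °C, over five buffer/ATP cycles with NaOH stripping and re-annealing in between. For each cluster, the fluorescence ratio is the summed Cy3 intensity of the target cycles divided by that of the buffer cycles, averaged per switch-domain sequence. Clusters outside 100-1000 RFU were left out.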
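Also: ATP exposure 15 min at 22 °C before imaging.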

Row | Sequence | switch fluorescence ratio
1 | CGGTCTGGTC | 0.987 ± 0.018
2 | GCGTGATAAT | 1 ± 0.062
3 | TGTGATTTAC | 1.05 ± 0.011
4 | GCTTTTGTAT | 0.991 ± 0.025
5 | GTGTTCGGTA | 0.9704 ± 0.0062
6 | TCAAGGTGGG | 0.998 ± 0.021
7 | TATCTTGGGC | 0.996 ± 0.083
8 | TTCACTCCGG | 1.2 ± 0.071
9 | TTAATCCATG | 0.988 ± 0.011
10 | ATGTGGGGGC | 0.994 ± 0.03
11 | TAAATACTCA | 1.16 ± 0.083
12 | CGATAAGGGG | 1.02 ± 0.018
13 | TGAGGACAGG | 1.06 ± 0.054
14 | GGCCGATATG | 0.996 ± 0.015
15 | GAGTTCGTTT | 1.02 ± 0.011
16 | TAAGGAAAAT | 0.998 ± 0.02
17 | AGTCTTTTGT | 0.997 ± 0.026
18 | TTGGTTTTGC | 0.99 ± 0.019
19 | GCTTGGGTAT | 1.02 ± 0.062
20 | AGGGTTCGGG | 1.01 ± 0.031
21 | GGGGGGTCTG | 1 ± 0.037
22 | AGTGAAGCTG | 0.996 ± 0.027
23 | AAACGAACAT | 1.217 ± 0.011

Row | Sequence | switch fluorescence ratio
24 | TTCTTGGTG | 1.02 ± 0.072
25 | ATTGGTACTT | 0.986 ± 0.058
26 | TTGCGGTTGG | 1 ± 0.076
27 | TTGCTCTAAC | 0.998 ± 0.022
28 | ATCTAAATAA | 1.03 ± 0.019
29 | TTGATGAGGA | 0.978 ± 0.048
30 | GCGAAAGGCG | 0.992 ± 0.022
31 | GTAAGGGGGT | 0.9731 ± 0.0091
32 | TAAAGGTCGT | 0.97444 ± 0.00071
33 | TTTGCACCCT | 1.03 ± 0.041
34 | CACTAAATGT | 1 ± 0.035
35 | GGTAGAAACT | 1.04 ± 0.014
36 | GGAACGGGTG | 1.09 ± 0.17
37 | TCGGAGAGTC | 1.26 ± 0.53
38 | TTGAAGGGGG | 0.993 ± 0.035
39 | GTGGGTAACT | 0.998 ± 0.041
40 | CAGGGTGGGA | 1.02 ± 0.044
41 | AACAGATTTT | 0.998 ± 0.011
42 | GAGATACATG | 1.02 ± 0.044
43 | TGACTTTTGT | 0.98 ± 0.0015
44 | GAGGCCTTAC | 1.69 ± 0.043
45 | GTAGGCAACA | 1.01 ± 0.068
46 | TCAATGTTGG | 0.988 ± 0.025

Row | Sequence | switch fluorescence ratio
47 | GCGGGCCTGT | 0.9967 ± 0.0099
48 | TATATTATTA | 0.985 ± 0.031
49 | ATGAGGGGTG | 1.013 ± 0.0076
50 | CAGTAGGTGG | 1 ± 0.028
51 | CATTCATGAT | 0.9858 ± 0.0086
52 | TAAGGGTATG | 0.965 ± 0.066
53 | ATGTTAGTGA | 0.979 ± 0.042
54 | TTTTTAGATA | 0.973 ± 0.038
55 | CCGGGGATCA | 1.01 ± 0.024
56 | TTGTTCCGTT | 0.9874 ± 0.0066
57 | GCCAAGGGAT | 0.9721 ± 0.0082
58 | TTAGAACTGA | 1.02 ± 0.023
59 | GGCATGGGTT | 1 ± 0.019
60 | GAGGGGGCCT | 0.989 ± 0.049
61 | GAAGTTGTTT | 1.018 ± 0.002
62 | ATGGGTGGGT | 0.994 ± 0.034
63 | TGTTTGGAAG | 1.05 ± 0.056
64 | ATATGAAGAA | 0.968 ± 0.01
65 | GTGTTTATGA | 1.06 ± 0.053
66 | TGCAAGTGGC | 1.09 ± 0.15
67 | GAACCCCCTC | 1.21 ± 0.18
68 | AACAGGGAGG | 0.993 ± 0.032
69 | AAATTGCCTG | 1.01 ± 0.047

Row | Sequence | switch fluorescence ratio
70 | CGGAAACTAG | 1.022 ± 0.0038
71 | CTATTTTGGC | 0.966 ± 0.038
72 | GGATCTTGGG | 1.0038 ± 0.00073
73 | TTCATAACTT | 0.99 ± 0.018
74 | AGTTCATCTT | 0.964 ± 0.015
75 | GGAGGCTGGT | 1.018 ± 0.01
76 | CCATTGAATG | 1.02 ± 0.015
77 | AGGAGCGCGT | 1.02 ± 0.051
78 | GTTTATCTGC | 1.02 ± 0.025
79 | ATTAATAAAG | 0.9984 ± 0.0086
80 | GTTTACGGGG | 0.997 ± 0.041
81 | TCGGCTAAAT | 1.003 ± 0.0063
82 | TATGGAGAAC | 1.01 ± 0.035
83 | GCGTGAGCAC | 0.9745 ± 0.0089
84 | GGGTGCTCGG | 1 ± 0.019
85 | GACCTGGGTC | 1.01 ± 0.0023
86 | GAAGAGTTTG | 0.9776 ± 0.0069
87 | AGAGTGAGTT | 0.9533 ± 0.0045
88 | GCGGGGCGAA | 1.01 ± 0.012
89 | CAGCGGGGTG | 1.11 ± 0.15
90 | AGGGGATGGG | 1.03 ± 0.033
91 | TTACCTTTGG | 1.005 ± 0.0087
92 | AAGGCGAGGG | 1.01 ± 0.015

Row | Sequence | switch fluorescence ratio
93 | TGCGGGGGTA | 0.999 ± 0.019
94 | GTAGTTAATG | 0.984 ± 0.038
95 | CGAAAAGAGG | 1.1 ± 0.26
96 | GGTGTGCATA | 0.994 ± 0.028
97 | CATGGGAGGT | 0.9711 ± 0.0067
98 | CGGTAGTTGG | 0.983 ± 0.019
99 | AATGATTTTG | 0.9765 ± 0.0065
100 | TCGTGGGTGG | 1.03 ± 0.056
101 | GAGTAAAGGG | 0.9992 ± 0.0019
102 | ACGTTGAGGG | 1.06 ± 0.049
103 | AAGTTGGGCA | 0.969 ± 0.039
104 | GGTGGGAGTT | 1.04 ± 0.032
105 | TAAGGGGGTT | 1.01 ± 0.036
106 | TATGGAATGC | 1.35 ± 0.076
107 | GGTGTCGGGA | 0.9705 ± 0.009
108 | GAGAGCAGGG | 0.995 ± 0.026
109 | GAAATGGGTT | 0.957 ± 0.063
110 | GGGTTATGGG | 1.005 ± 0.008
111 | TTTATGGGAC | 0.999 ± 0.052
112 | TTGACCCGAC | 1.4 ± 0.39
113 | AGGGGTTGGC | 0.958 ± 0.056
114 | GCAATTAATG | 1 ± 0.015
115 | CAGTCGGGTT | 1.03 ± 0.079

Row | Sequence | switch fluorescence ratio
116 | TCGGGAATTG | 1.04 ± 0.085
117 | TTAGGTTATC | 1.01 ± 0.016
118 | GGTTGACTCT | 1.01 ± 0.029
119 | CGCTGAGTAT | 0.995 ± 0.021
120 | ATAAGTAACG | 1 ± 0.015
121 | TTTGCCAGGA | 0.997 ± 0.0063
122 | CGTTGAGACC | 0.995 ± 0.019
123 | TTATATTTCG | 1 ± 0.032
124 | GAAACTAGAG | 0.986 ± 0.0047
125 | TATGCGGGCG | 0.939 ± 0.072
126 | GGGTGCAGGG | 0.9932 ± 0.0059
127 | AATGTTTCGG | 0.977 ± 0.022
128 | AAGAACGGTA | 1.06 ± 0.043
129 | TAGGATGTCA | 1.01 ± 0.027
130 | CTATGGTTTT | 1.014 ± 0.003
131 | GAGTGAGGGA | 1.03 ± 0.024
132 | TTGACTTATT | 1 ± 0.043
133 | CTTGTGGCTG | 1.031 ± 0.0033
134 | ACAGGGTTCT | 0.987 ± 0.025
135 | GTTTGGTTTT | 0.99 ± 0.014
136 | TATCTGGGCC | 1.03 ± 0.011
137 | GCGCCGGGGG | 1.03 ± 0.018
138 | GCCGGGGAGC | 1.02 ± 0.045

Row | Sequence | switch fluorescence ratio
139 | GGTATTGAAG | 0.999 ± 0.024
140 | TGTATGTGGG | 0.999 ± 0.028
141 | TTGCATAGGG | 1.02 ± 0.023
142 | GGGTATTTAG | 0.983 ± 0.033
143 | CGGCGCGCTG | 0.997 ± 0.034
144 | CTGAATACGG | 1.115 ± 0.01
145 | TGGATTTACT | 1.01 ± 0.031
146 | GGTATAGCGC | 1.01 ± 0.051
147 | TTGTACGGGG | 0.985 ± 0.03
148 | GGAGAAGTCC | 1.03 ± 0.093
149 | CTGAGTGGC | 0.9639 ± 0.0063
150 | AGTTCTGTTT | 0.994 ± 0.047
151 | GGAGATGCAG | 0.969 ± 0.046
152 | GAGGGGGATA | 1.03 ± 0.058
153 | TGGTTGGAGT | 1.006 ± 0.0035
154 | GGATAATAGT | 0.9916 ± 0.0082
155 | TATATGAATA | 1.006 ± 0.0023
156 | TTTTACGTTG | 0.995 ± 0.01
157 | TGTCTATGGG | 0.988 ± 0.023
